For this assay, the target named is BDC2.5 T cell receptor (transgenic TCR alpha/beta of BDC2.5 TCR Tg mice) (mouse). Description: cell-based or functional assay.

This note sets out measurements from patent US20100310588A1.

For “p31-I-A^g7 multimer (recombinant MHC class II I-A^g7 presenting the BDC2.5 TCR mimotope peptide 1040-31) (peptide-MHC)”, the fold expansion of antigen-specific cells during the 10 day culture (lowest seeding, 0.001%) stood at 5000 fold.
